Test results as given in the nanobody polyreactivity screen of Harvey et al. (2022).

Test: yeast display, Sf9 membrane polyspecificity reagent, FACS + sequencing; frameworks hold sequencing errors
In short: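 Sorting gates, low and high (top ~1%), were placed on anti-HA fluorescence to track expression and on streptavidin fluorescence to track reagent binding. A clone's polyreactivity label is taken from the gate it came out of. The reagent was 10% biotinylated, detergent-solubilized Sf9 membrane, applied for 1 hour at 4 °C to galactose-induced yeast display cells.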

Sequence | polyreactivity (PSR sort gate)
QVQLVESGGGLVQAGGSLRLSCAASGRIFKRYAMGWYRQAPGKERELVASITTSGDSTYYADSVKGRFTISRDNAKNTVYLQMNSLKPEDTAVYYCAARSYRGRRYDYWGQGTQVTVSS | high polyreactivity
HVQLQESGGGLVQACGSQRLSCAASGSISEGQDMGRYRLAPGKEREFVAGIAPGATTYYADSVKGRFTISRDNAKITVYLQMNSLIPEDNAVYYCAARSVTETDHDYWGQGTQVTVSS | low polyreactivity
QVQLVESGGGLVQAGGSLRLTCAASGSIFYTNAMGWYRQAPGKERELVAAIRWSGGRTYYADSVKGRFTISRDNAKNTVYLQMNSLKPEDTAVYYCTVVVRYPSAYAYWGQGTQVTLSS | high polyreactivity
QVQLVESGGGLVQAGGSLRLSCAASGLTFSRNAMGWYRQAPGKERELVAAINWRGGRTYYADSVKGRFIISRDNAKNTVYLQMNSLKPEDTAVYYCAADPANRCMYYWGQGTQVTVSS | high polyreactivity
QVQLVESGGGLVQAGGSLRLSCAASGNIFSYYAMGLYRPAPGKERELVAAIDWNGGTTYYADSVKGRFTISRDNAKNTVYLQMNSLKPEDTAVYYCAAAWYWYWFLFEGAPYDYWGQGTQVTVSS | high polyreactivity
QVQLVESGGGLVQAGGSLRLSCAASGFTFLVYVMGWYRQAPGKVRELVAAISSCGSSTYYADSVKGRFTISRDNAKNTVYLQMNSLKPEDTAVYYCAAAPYYSHEYDYWGQGTQVTVSS | low polyreactivity
QVQLHESGGGLVQAGGSLRRSCAPSGTISYAGPMGWYRQAPGKEREFVAGIGVGSNTNYADSVKGRYTIIRDNAKNTVYLQMNSLKPEDTAVYYCAVGGYAPLGRPYWGQGTQVTVSS | low polyreactivity
QVQLVDSGGGLVQAGGSLRLSCAASGRIFHGYAMGWYRLAPGKERELVAAISWRGDSTYYADSVKGRFTISRDNAKNTVYLQMNSLKPEDTAVYYCAAASRSWRDDYWGQGTQVTVSS | low polyreactivity
QVQLVESGGGLVQAGGSLRLSCAASGRIFTVYAMGWYRQAPGKERELVAAIDFSDGTTYYADSVKARFTISRDNAKNTVYLQMNSLKPEDTAVYYCAAEGGSALDDDYWGQGTQVTVSS | high polyreactivity
QVQLVESGGGLVQAGGSLRLSCAASGITFYRYAMGWYRQAPGKERELVASISSRGSSTYYADSVKGRFTISRDNAKNTVYLQMNSLKPEDTAVYYCAKSRGSRGFVASTYNYWGQGTQVTVSS | high polyreactivity
QVQLVESGGGFVQAGGSLRLSCAASGFTFVGYAMGWYRQAPGKERELVAAITRRGGSTYYADSVKGRFTISRDNAKNTVYLQMNSLKPEDTAVYYCNKASYRISVPRYDYWGQGTQVTVSS | high polyreactivity
QVQLVESGGGLVQAGGSLRLTCAASGSIFGVYTMGWYRQAPGKERELVAAITSAGSTYADSVKGRFTISRDNAKNTVYLQMNSLNPEDTEVYYCNAQSFLLSLRVELREPHEYWGQGTQVTVSS | low polyreactivity
QVQLVESGGGLVQGGGSLRLSCAASGSIFSDNAMGWYRQAPGKERELVATITFSGASTYYADSVKGRFTISRDNAKNTVYLKMNSLKPEDTAVYYCAAEEPDVIAQPGFDYWGQGTQVTVSS | low polyreactivity
QVQHVESGGGLVQAGGSLRLSCAASGSTFYFYTMGWYRQAPGKERELVAAITYSGGSTYADSVKGRFTISRDNAKNTDYLQMNSLKPEDTAVYYCAAASYFYLYLLEDYWGQGTQVTVSS | low polyreactivity
QVQLVESGGGLDHAGGPLRLSCAASGTIFAYYNMGWYRQPPGKERELVAGISKRGGNTYYADSVKGRFTISRDNAKNTVYLQMNSLKPEDTAVYYCNKRYSANTRGYYYWGQGTQVTVSS | high polyreactivity
QVQLVESGGGLVQAGGSLRLSCAASGSTFSSYAMAWYRQAPGKERELVAAISSVGVDTYYADSVKGRFTISRDNAKNTVYLQMISLKPEDTAVYYCAAGRYGWWRHYFVFKYDYWGQGTQVTVSS | low polyreactivity
QVQLVESGGGLVQAGGSLRLSCASSGRTFYYYAIGWYRQSPGKETELVAVIRSSGDSTYYADSVKGRFTISRDNAKNTVSLQMNSLKPEDNAVYYCAAEAPSRCYSWHPRYYFWGQGTQVTVSS | low polyreactivity
